Results published in IntAct's records for PubMed 17187064.

B1: A-type potassium channel modulatory protein KCNIP1 (Homo sapiens), Q9NZI2 (parent)
chain: MGAVMGTFSSLQTKQRRPSKDIAWWYYQYQRDKIEDELEMTMVCHRPEGLEQLEAQTNFTKRELQVLYRGFKNECPSGVVNEDTFKQIYAQFFPHGDASTYAHYLFNAFDTTQTGSVKFEDFVTALSILLRGTVHEKLRWTFNLYDINKDGYINKEEMMDIVKAIYDMMGKYTYPVLKEDTPRQHVDVFFQKMDKNKDGIVTLDEFLESCQEDDNIMRSLQLFQNVM
partner: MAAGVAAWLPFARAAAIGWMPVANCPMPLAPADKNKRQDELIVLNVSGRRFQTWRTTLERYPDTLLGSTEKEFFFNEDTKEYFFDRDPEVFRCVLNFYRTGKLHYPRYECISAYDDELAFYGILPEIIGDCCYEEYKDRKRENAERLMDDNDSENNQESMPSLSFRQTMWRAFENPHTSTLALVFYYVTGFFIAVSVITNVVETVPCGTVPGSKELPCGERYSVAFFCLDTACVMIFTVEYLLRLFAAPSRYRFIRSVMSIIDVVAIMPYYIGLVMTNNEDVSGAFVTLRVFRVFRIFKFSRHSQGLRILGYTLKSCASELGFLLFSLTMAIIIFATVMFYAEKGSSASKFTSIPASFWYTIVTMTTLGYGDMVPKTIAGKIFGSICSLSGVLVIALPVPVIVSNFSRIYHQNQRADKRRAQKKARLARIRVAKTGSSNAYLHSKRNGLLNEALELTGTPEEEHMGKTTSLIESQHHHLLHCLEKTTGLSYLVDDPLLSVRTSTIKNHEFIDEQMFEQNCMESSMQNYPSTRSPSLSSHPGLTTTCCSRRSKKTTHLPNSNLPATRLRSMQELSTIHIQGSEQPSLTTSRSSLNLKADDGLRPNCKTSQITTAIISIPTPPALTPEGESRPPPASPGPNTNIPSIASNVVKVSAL
B2: A-type voltage-gated potassium channel KCND3 (Homo sapiens), Q9UK17 (parent)
chain: B1 partner
partner: B1 chain

Variants of: B1
Conditions: with kcnd3_human KCND3, Q9UK17

Row | effect of a mutation on the interaction | Variant
1 | disrupting interaction | MGAVMGTFSSLQTKQRRPSKDIAWWYYQYQRDKIEDELEMTMVCHRPEGLEQLEAQTNFTKRELQVLYRGFKNECPSGVVNEDTFKQIYAQFFPHGDASTYAHYLFNAFDTTQTGSVKFEDFVTALSILLRGTEHEKLRWTFNLYDINKDGYINKEEMMDIVKAIYDMMGKYTYPVLKEDTPRQHVDVFFQKMDKNKDGIVTLDEFLESCQEDDNIMRSLQLFQNVM [V134E]

Variants of: B2
Conditions: with kcip1_human KCNIP1, Q9NZI2

Row | effect of a mutation on the interaction | Variant
2 | disrupting interaction | W8E;P10E;A15E
